Experimental data reported in patent publication US20090252729A1.
pEC50: −log10 of the molar value.

Legend:
[1] = molecular target: cynomolgus FcγR IIa (CD32a) (cynomolgus); experiment: Alphascreen assay, cynomolgus FcγR CD32a (R)
[2] = molecular target: cynomolgus FcγR III (CD16a) (cynomolgus) (UniProt Q8SPW2); experiment: Alphascreen assay, cynomolgus FcγR CD16a
[3] = molecular target: human FcRIII-GST (CD16a, V158) (human) (UniProt P08637); experiment: Alphascreen assay, human FcγR CD16a
Sequence of human FcRIII-GST (CD16a, V158) (human) (P08637 17-208 F176V limits assumed): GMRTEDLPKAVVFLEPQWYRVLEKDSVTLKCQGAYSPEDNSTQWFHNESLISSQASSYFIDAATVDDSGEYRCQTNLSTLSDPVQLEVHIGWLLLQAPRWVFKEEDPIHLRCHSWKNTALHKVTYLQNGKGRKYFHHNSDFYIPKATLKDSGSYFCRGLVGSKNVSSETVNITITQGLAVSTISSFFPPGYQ

Sequence of cynomolgus FcγR III (CD16a) (cynomolgus) (Q8SPW2 17-208 limits assumed): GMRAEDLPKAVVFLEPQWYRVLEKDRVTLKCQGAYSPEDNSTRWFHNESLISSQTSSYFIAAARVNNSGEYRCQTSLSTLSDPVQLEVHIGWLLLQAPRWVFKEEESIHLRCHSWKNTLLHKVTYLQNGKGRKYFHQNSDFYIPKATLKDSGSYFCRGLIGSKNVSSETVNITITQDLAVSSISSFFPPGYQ

pEC50 [1]: 5.93
pEC50 [2]: 5.64
pEC50 [3]: 5.73
Substance: Agly 5c8 IgG1 (antibody)
